The results in this text go back to a protein production outcome set (Wang et al. 2014).

This data set can be described thus: label from the status in PepcDB records.
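Also: failed if final PepcDB status was selected cloned or expressed and not failed if soluble or beyond.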

“MTDLLLDGSEADNAQTVLNAARIELLSPRLANQIAAGEVVERPASVIKELLENSLDSGARRIDIDVEQAGIKLLKVRDDGGGISSDDLPLALARHATSKIRDLEDLERVMSLGFRGEALASISSVARLTLTSRTRDADQAWQVETEGRDMDARVQPAAHPVGTSVEVRDLFFNTPARRKFLKAEKTEFDHLHEVIKRMALARFDVAFHLRHNGKTVLSLHEAHDDTARARRVSAICGPGFLEQALPIEIERNGLHLWGWVGLPTFSRSQADLQYFFVNGRAVRDKLVAHAVRQAYRDVLFNGRHPTFVLFFEVDPAAVDVNVHPTKHEVRFRDGRMVHDFLYGTLHRALGDVRPENQLGGSVPAAAEPRPTGPDAGEFGPQGEMRLANNVLEQPQGEPFARPAGGGSGSGYQYSPRPTTGVPVAEAQSAYREFFAPLPGTTPSALPESPSDIPPLGYALAQLKGIYILAENAHGLVLVDMHAAHERIMYERLKIAMANEGLSGQPLLVPESIAVSQREADCAEEHITTFQRLGFELQRLGPETLAIRQIPALLKQAEANRLVSDVLADLMEYGTSDRVQAHMNELLGTMACHGAIRANRRLAIPEMNGLLRDMENTERSGQCNHGRPTWTQMGLSDLDKLFLRGQ”: the protein production entry is reported as “failed”.

As to “MTDNSPPPNGHAQARVRKNNTFLSAVWLVPLIALIAGGWLWVKEIRNRGPVVTLLMDSAEGIEVNNTVIKVLSIDVGRVTRIKLRDDQKGVEVTAQLNADVSGLIRSDTQFWVVKPRIDQSGVTGLGTLLSGSYIAFTPGKSDEAKDVFQVQDIPPVTAIGQSGLRLNLIGKNDRILNVNSPVLYENFMVGQVESAHFDPSDQSVHYTIFIQSPNDKLIHSASRFWLESGINIETTGSGIKLNSAPLPALLSGAISFDSPKTKNSKNVKSEDSFTLYDSRSEVANLPDDRSLYYTAFFKQSVRGLTVGSPVEYKGLNVGVVSDVPYFDRNDSLHLFENGWIPVRIRIEPSRLEINADEQSKEHWKQQFQTALNKGLTATISSNNLLTGSKMIELNDQPSASPKLRPHTVYAGDTVIATQGGGLDDLQVKLADLLDKFDKLPLDKTVAELNGSLAELKSTLKSANAALSSIDKLVGKPQTQNIPNELNQTLKELRTTLQGVSPQSPIYGDVQNTLQSLDKTLKDVQPVINTLKEKPNALIFNSSSKDPIPKGSR”, the protein production entry is “failed”.

In the case of “MTDNTAVRRRYEKSFTERPGFTEDEIEEIREAFNLLDTDGTGTIDPKEIKCAMQSLGLDAKNPMIFRMIADLEKDGYSSIDFEEFMEVITSKLGNKDTREGIQRIFNLFDDDKTGSISLKNLKRVAKELGETLTDEELRDMIDRADSKGEGEISFEDFYTIMTKKSFL”, the protein production result is “failed”. The entry for “MTDQLQHIRKPPRTGKAARSGTQDEIVYAHIFDAILEQRLAPGTKLSEEALGEIFGVSRTIIRRALSRLAHEQVVLLRPNRGAVVASPSIDEARQILFARRTVERAITELATDNATAERLAEL” is “failed”. Consider “MTDQRWLIDKSALVRLTDSPDMEIWSNRIERGLVHITGVTRLEVGFSAECGEIARREFREPPLSAMPVEYLTPRIEDRALEVQTLLADRGHHRGPSIPDLLIAATAELSGLTVLHVDKDFDAIAALTGQKTERLTHRPPSA”, for which the protein production entry was “not failed”. On to “MTDQTYCDRLVQDTPFLTGHGRLSEQQVDRIILQLNRYYPQILTNKEAEKFRNPKASLRVRLCDLLSHLQRSGERDCQEFYRALYIHAQPLHSRLPSRHALQNSDCTELDSGSQSGELSNRGPMSFLAGLGLAVGLALLLYCYPPDPKGLPGTRRVLGFSPVIIDRHVSRYLLAFLADDLGGL”, for which the protein production result was “failed”. Take “MTDQVFGKVSKVVCVGAGYVGGPTCAMIAHKCPHITVTVVDMNTAKIAEWNSDKLPIYEPGLDEIVFAARGRNLFFSSDIPKAIAEADLIFISVNTPTKMYGRGKGMAPDLKYVESVSRTIAQYAGGPKIVVEKSTVPVKAAESIGCILREAQKNNENLKFQVLSNPEFLAEGTAMKDLANPDRVLIGGESSPEGLQAVAELVRIYENWVPRNRIITTNTWSSELSKLVANAFLAQRISSINSISAVCEATGAEISEVAHAVGYDTRIGSKFLQASVGFGGSCFQKDVLSLVYLCESLNLPQVADYWQGVININNWQRRRFADKIIAELFNTVTDKKIAIFGFAFKKNTGDTRESSAIHVIKHLMEEHAKLSVYDPKVQKSQMLNDLASVTSAQDVERLITVESDPYAAARGAHAIVVLTEWDEFVELNYSQIHNDMQHPAAIFDGRLILDQKALREIGFRTFAIGTSPDQAYNLFGTAGY”: the protein production result is on record as “not failed”.

On to “MTDTASKYAVKLKTNFEDPKWVNRHKFMFNFLDINGNGKITLDEIVSKASDDICAKLGATPAQTQRHQEAVEAFFKKIGLDYGKEVEFPAFVNGWKELAKHDLKLWSQNKKSLIRNWGEAVFDIFDKDGSGSISLDEWKTYGGISGICPSDEDAEKTFKHCDLDNSGKLDVDEMTRQHLGFWYTLDPNADGLYGNFVP”, for which the protein production entry was “not failed”.

Turning to “MTDWQQALDRHVGVGVRTTRDLIRLIQPEDWDKRPISGKRSVYEVAVHLAVLLEADLRIATGATADEMAQFYAVPVLPEQLVDRLDQSWQYYQDRLMADFSTETTYWGVTDSTTGWLLEAAVHLYHHRSQLLDYLNLLGYDIKLDLFE”, the protein production result is “not failed”.

As to “MTDYTKLQQVRQWTQDNHVDVTYISNFHTISYLTGFESNPYERTLALFVFADAEPFLFAPALEVEAIKEMGWPYKVFGYLDHENPYALIADHIHAQLTDPKVWALETGNLTLDRFTALKQQFPAAHFDKDLSPYIQQLRLVKTADELEKLNIAGKWADFAFEQGFAAVKAGRTEQQIAAELQYALMKKGIMEMSFDTLVQAGEHAANPHGATNETQVKPNELVLFDLGVMYEGYASDASRTIAYGQPSAKQKEIFDVCLEANLTAQAAIKPGMAAEDVDKIARDIITKAGYGEYFIHRLGHGIGQTDHEFPSIMAGNHMPLVEGMCFSVEPGIYIPGVAGVRIEDCGVVTKEGFKPFTHTPKELKVLDL”, the protein production entry is on record as “failed”. “MTEEKKRGFRIPSSYTVLFIIIAIMAVLTWFIPAGAYETAKGGGVISGTYKTVASNPQGFFDILMAPVRGMLGVEGTDGAIQVSFFILMVGGFLGVVNKTGALDTGIASVVRKNKGREKMLIAILIPLFALGGTTYGMGEETMAFYPLLIPVMIAVGFDSIVAVAIILIGSQIGCLASTINPFATGVAADAAGVSIADGMIWRVIQWVILVGMSIWFVYNYASKIEEDPSKSLVADKEEEHKELFQLQNSGEDLNKRQRNVLTIFTLTFVIMILSLIPWEDFGIKFFTNINTWLTTMPILGGVIGKTMGAFGTWYFPEITMLFIMMGVLVAIVYRMSEEDFFSSFLTGAGEFLGVAMICAIARGIQVIMNGGMITATILHLGETSLSGLSSQVFVILAYIFYLPMSFLIPSTSGLAGATMGIMAPLGQFSNVPAHLVITAFQSASGILNMISPTSAIVMGALALGRVDLGTWWKFIGKFIVMVMLVSVLLLVVATFF”: the protein production result is reported as “not failed”. Regarding “MTEFPKILMVLGAVIFGIGLFMQVIGRLPGDIFVKKGNVTFFFPVVTCIVISIILSVVFSFFGRMK”, the protein production entry is reported as “failed”.

Consider “MTEHCGAIKYFKSNFRRKRCLDFVCLTNLMFGLGSTPHGQVERADENNTLDLNNLPDDPSRDIFPFFEEGGFREKQTKDGKEYECRFCSLKFFKSQALGGHMNRHRQERETESLNKARELVLRNDSFPPHQGPPSFSYHQGDVHIGDLTQFKPMMYPPRHFSLPGSSSILQLQPPYLYPPLSSPFPQHNTNIGNNGTRHQTLTNSVCGGRALPDSSYTFIGAPVANGSRVAPHLPPHHGL”, for which the protein production result is on record as “failed”.

Consider “MTEHSSDYYQRLVDESALEEFLTREIGPAETFDVARHEQGHSNETLFVTWGDRELVVRRPPPGQTAETAHDVLREYRVIDALQDTAVPVPPTVTACDDQTIIGSDFYVMARVEGTVIRDDEPARFGSDDARAAVGTELVDTLAAIHEVDPTAVGLSDLGRADGYAKRQVARWGKQLAWAFERTAESRTIPELERVGSWLQDECPDDHPKTLVHGDYKLDNVMFGPGDDPELAAVFDWEMATLGDPRADLGWLLSYWRDAKDPEPEIPDLAMEFIEAPGYLTRTDLVDRWEAQTGLTFEHERFYRTLAVYKLAALGEMFYRRYLEGNADDPFYPLMEDRVPALANRAVRIIEGDEPL”, for which the protein production entry was “failed”. The entry for “MTEKEKMLAEKWYDANFDQYLINERARAKDICFELNHTRPSATNKRKELIDQLFQTTTDNVSISIPFDTDYGWNVKLGKNVYVNTNCYFMDGGQITIGDNVFIGPNCGFYTATHPLNFHHRNEGFEKAGPIHIGSNTWFGGHVAVLPGVTIGEGSVIGAGSVVTKDIPPHSLAVGNPCKVVRKIDNDLPSETLNDETIK” is “not failed”; for “MTEMHRLLQRQLKKFGFTADGLPQNLESWTQFIAHINKTYYENDQDRYLLERSIDISSKEMRDINAKLEYAQDIAQIGYWHYDADTDTATWSKGLFKILGLPPSNVALNYSSFLDLVHPNDKAGLKNVVEKALKEKEDYDYELRVRNGDNDYKWYRTIARANPHKNEISGVLMDISKRKIIEEQVHELNNKLVSTARLAGMSEVATSILHNVGNILNSVNVSAIILKKNISKIHYKKLSAIKTMLDENINQLSEYLLQNPKGKLILPYLDALSKTLHEEYEENMKESNSLETNINHIKEIIAMQQSLSGLSNLTEKISIHDVILNAVKSVILDKHQIDVRIEIEPDINEFITDKSKLFQILTNLLANAKDSVLLHEANDSRKVVISIGRTEKNHIMIKINDNGIGIQKDNLDRIFSFGFTTKKNGHGFGLHCSAIYARDLGGTLYAESNGNGKGAQFVLDLPINPKTLSTR” it is “failed”. The entry for “MTERKVSWLELFFDLIFVTAVASTTHLLLSVDNHPDKTAAYFGEYLLMVTPMFWAWVGQTMFFNRFGEKIKWPELYMLSQMFFLILMTASFDLTFSNTYYTFLIGYLGIRFITVIQYFVISKQLTGNAQKVALLLGSVFLLGVLTTATSVFFEGFARYLVMYLGIAVDIILPLFLAKTLRKVPVDFPHLAERFGLFVIITFGESIVAITTILVGHTLDLYTICYTLLGFLIICTLWASYFYSFEKIVDHHKVTHGQFLIYGHFFIIVSVMLLAVNLHLLFEGHLQRDVLLLLLFSSVAVFFISKQFVFAAHKKAEVSFSFWKDALLLLLLVGLFFVNLYINLPLFVSFVSIWICALVDLGLQFGTSRSVRM” is “failed”; for “MTERLLVGVIVGSHGVRGLVRVKSFTQDEMALCDYGPLSDETGTRRFAVEVRNQAKGVVICQIPGVSDRTAADALKGTRLFLDRAALPADALEEDEYYHADLIGLPVDLVDGGRLGVVHSVHDFGAGDMLEVTLAQGRRSVLLPFTKAVVPLVDVKAGRLVADPPLGLLDDTRPPAGVEGEVEEDPGVGIDEDGDGKGGASLEHHHHHH” it is “not failed”; for “MTESTGSTSQEQQVRGETMPDWEKRFRAPRVSLPDWAEDAPHRALFVSNATGTYELYAWDRTTGEQRQVTDRPNGTTDGVLSPDGEWIWWFDDTDGDEFGIWRRQRFTGGGTADGPDEPAADGLEPSYPAGLAIGRDGGTAVVGRSTDEDGSTVHVVRAGQEPVEIYRHRESAGVGDLSHDGSLIAVEHTEHGDAMHSALRVLRLDGSTVAELDDTKGGSVELGLEVLGFAPVDGDTRLLIGHQRRGRWEPLVWDVASGEETDLALELPGDVGAEWYPDGSALLVAHSFEARSELFRYDLASRELVRVPTPAGTVSGATARPDGSVEYLWSSAAEPSVVRSTSGGIVLDPPGMKSPGSVPVEDVWVEGPGGRVHALVQRPAGASGPLPTVFDIHGGPTWHDSDSFAAGPAAWLDHGYAVVRVNYRGSTGYGREWTDALKHRVGLIELEDIAAVREWAVSSGLADPDRLILTGGSWGGYLTLLGLGTQPDAWTIGIAAVPVADYVTAYHDEMEALKAMDRTLLGGTPEEVPERFEASSPLTYVDAVKAPVYISAGVNDPRCPIRQVENYVERLTARDAVHEVYRYDAGHGSLVVDERIKQVRLELEFAERHLGR” it is “failed”.
